What all share (assay): in vivo oligomerization (SDS-PAGE of cell lysates ± DTT, anti-FLAG Western blot)
On the technique in general: In western blotting, separated proteins are transferred to a membrane and probed.

Experiment [1] concerns the target HapR-R37D, C-terminal FLAG-tagged (Vibrio cholerae).
Experiment [2] deals with HapR-R37H, C-terminal FLAG-tagged (Vibrio cholerae).
Experiment [3] deals with HapR-R37A, C-terminal FLAG-tagged (Vibrio cholerae).
For experiment [4], the target named is HapR, wild type, C-terminal FLAG-tagged (Vibrio cholerae).
The target in experiment [5] is HapR-R37E, C-terminal FLAG-tagged (Vibrio cholerae).

A word on the stoichiometry N: it is a count of units in the complex or per binding partner. For “HapR-R37D, C-terminal FLAG-tagged (natural protein)”, the stoichiometry N in experiment [1] worked out at 2.
For “HapR-R37H, C-terminal FLAG-tagged (natural protein)”, the stoichiometry N in experiment [2] was 2.
In turn, “HapR-R37A, C-terminal FLAG-tagged (natural protein)” yielded a stoichiometry N in experiment [3] of 2.
In the case of “HapR, wild type, C-terminal FLAG-tagged (natural protein)”, the stoichiometry N in experiment [4] turned out to be 2.
“HapR-R37E, C-terminal FLAG-tagged (natural protein)”: the stoichiometry N in experiment [5] is 2.

For the origin of these results see PMC7472637.
